The results in this text go back to article PMC2063866 (The Journal of Cell Biology, 2006).

What is called Kd is a measure of binding affinity in units of concentration.

The target in this assay is Recombinant full-length WAVE2 tagged with GST at its COOH terminus (UniProt Q9Y6W5 1-498). Briefly: dual polarization interferometry.
Sequence of Recombinant full-length WAVE2 tagged with GST at its COOH terminus (Q9Y6W5 whole entry): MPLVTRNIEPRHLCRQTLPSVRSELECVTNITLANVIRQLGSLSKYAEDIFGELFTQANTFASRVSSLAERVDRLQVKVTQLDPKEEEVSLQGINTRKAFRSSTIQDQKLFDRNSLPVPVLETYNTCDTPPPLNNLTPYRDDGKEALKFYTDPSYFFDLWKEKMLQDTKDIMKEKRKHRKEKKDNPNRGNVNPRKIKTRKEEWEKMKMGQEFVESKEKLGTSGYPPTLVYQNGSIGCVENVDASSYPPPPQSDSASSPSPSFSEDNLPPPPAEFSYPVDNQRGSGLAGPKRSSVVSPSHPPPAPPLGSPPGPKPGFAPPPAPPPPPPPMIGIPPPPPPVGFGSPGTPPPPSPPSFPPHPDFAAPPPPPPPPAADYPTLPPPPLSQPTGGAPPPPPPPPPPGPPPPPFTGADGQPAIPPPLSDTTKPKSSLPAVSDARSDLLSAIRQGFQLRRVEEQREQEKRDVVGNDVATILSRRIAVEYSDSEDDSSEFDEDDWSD

B1: Coiled-coil region of Abi1 (aa 6–124) (domain or fragment)
chain: MLLEEEIPSGKRALIESYQNLTRVADYCENNYIQATDKRKALEETKAYTTQSLASVAYQINALANNVLQLLDIQASQLRRMESSINHISQTVDIHKEKVARREIGILTTNKNTSRTHKI
As for B1, the Kd is 600 nM.
